Experimental data taken from publication PMC6851107, “Characterization of the dynamics and the conformational entropy in the binding between TAZ1 and CTAD-HIF-1α” (Scientific Reports, 2019).

Target: T1, transcriptional adapter zinc binding 1 (TAZ1) domain of CREB binding protein (CBP) (mouse (numbering; the same sequence in …, UniProt P45481 340-439)
T1 construct: Isotope-labelled (15N; or 2H, 13C, 15N; or 10% 13C) or unlabelled, depending on the NMR sample
Experiment: NMR relaxation (15N backbone and 2H methyl side chain) of the complex; 1.3 mM labelled TAZ1 with 1.8 mM unlabelled CTAD-HIF-1α, and 1.3 mM labelled CTAD-HIF-1α with 1.8 mM unlabelled TAZ1; 15 mM HEPES pH 6.8, 50 mM NaCl, 3 mM TCEP, 0.01% NaN3, 7% D2O; 303 K
Details: both partners purified

T1 sequence (P45481 340-439): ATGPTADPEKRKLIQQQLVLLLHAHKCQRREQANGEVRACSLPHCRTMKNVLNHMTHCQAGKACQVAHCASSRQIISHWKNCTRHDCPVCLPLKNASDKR

binding result: binds
B1: C-terminal transactivation domain of hypoxia inducible factor subunit 1α (CTAD-HIF-1α) (domain or fragment, UniProt Q16665 776-826, looked up)
chain: SDLACRLLGQSMDESGLPQLTSYDCEVNAPIQGSRNLLQGEELLRALDQVN
notes: Unlabelled or 2H, 13C, 15N-labelled, depending on the NMR sample
